Reference: article PMC4571279 (Nature Communications, 2015)

B1: Fab m336 (antigen-binding fragment of antibody m336, prepared by Lys-C digestion) (Fab, V domains shown)
VH: QVQLVQSGAEVKKPGSSVKVSCKASGGTFSSYAISWVRQAPGQGLEWMGGIIPIFGTASYAQKFQGRVTITADKSTSTAYMELSSLRSEDTAVYYCARVGYCSSTSCNRGAFDIWGQGTMVTVSS
VL: DIQLTQSPSSLSASVGDRVTITCRASQGIRNDLGWYQQKPGKAPKLLIYAASSLQSGVPSRFSGSGSGTDFTLTISSLQPEDFATYYCQQLNSYPLTFGGGTKVEIK
notes: also called m336 Fab
B2: IgG1 m336 (antibody, V domains shown)
VH: B1 VH
VL: B1 VL
notes: IgG1; also called wild-type m336; copies: 2 + 2
B3: Fab m336 (from the m336 Fab-expressing plasmid), wild type (Fab, V domains shown)
VH: B1 VH
VL: B1 VL
notes: also called wild-type m336

Legend:
[1] = molecular target: T1, MERS-CoV Eng1 receptor-binding domain (RBD) (MERS-CoV Eng1, UniProt K9N5Q8); assay: crystal structure; settings: both partners purified
T1 construct: source: GnTi-/- cells, purified (Ni-NTA, size exclusion chromatography in 1x PBS)
T1 sequence (K9N5Q8 367-601): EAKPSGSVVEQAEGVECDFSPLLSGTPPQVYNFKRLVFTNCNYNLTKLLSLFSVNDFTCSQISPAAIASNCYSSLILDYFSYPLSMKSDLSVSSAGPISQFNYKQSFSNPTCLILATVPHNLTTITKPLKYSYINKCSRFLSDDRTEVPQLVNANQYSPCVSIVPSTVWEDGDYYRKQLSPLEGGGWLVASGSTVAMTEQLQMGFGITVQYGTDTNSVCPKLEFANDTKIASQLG

[2] = molecular target: T2, recombinant MERS-CoV S1 protein (MERS-CoV, isolate EMC/2012 (strain of …, UniProt K0BRG7)); assay: ELISA; settings: both partners purified
T2 construct: source: bought: Sino Biological Inc

Row | Binder | binding result [1] | binding result [2]
1 | B1 | binds | 
2 | B2 |  | binds
3 | B3 |  | binds
